Literature values, collected in publication PMC7023894.

Target: Ezrin FERM (Homo sapiens) (UniProt P15311)
Chain of UniProt P15311 (P15311 1-299): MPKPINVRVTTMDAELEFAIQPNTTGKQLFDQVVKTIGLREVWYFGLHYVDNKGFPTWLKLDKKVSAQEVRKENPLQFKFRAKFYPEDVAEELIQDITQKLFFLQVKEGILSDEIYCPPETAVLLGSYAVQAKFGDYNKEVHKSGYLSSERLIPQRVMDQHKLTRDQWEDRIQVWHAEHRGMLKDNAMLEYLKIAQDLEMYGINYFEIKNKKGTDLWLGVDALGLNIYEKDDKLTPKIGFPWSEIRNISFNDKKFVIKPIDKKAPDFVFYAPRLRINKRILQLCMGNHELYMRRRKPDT

Kd: 0.0733 µM
Substance: Transgelin-2 CLR region (from UniProt P37802)
